Experimental data: the supplement of paper PMC10567573

B1: CLCN6 (parent)
chain: FQSISLRKIQFNFPYFRSDRDKRD
B2: PLAGL1 (parent)
chain: DPNKMAFGCEECGKKYNTMLGYKR

Variants of: B1
Test: protein stability index of a GFP-peptide fusion (GPS, HEK-293T) (PSI 1-6); higher = more stable
Settings: c terminus: a fixed tail appended
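Note: lentivirally expressed fusions sorted by FACS into six bins by GFP to DsRed ratio, PSI derived from sequencing read proportions per bin multiplied by bin number.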

Protein stability index of substitutions, site by site:
F16: E 2.22 | H 2.3 | I 2.18 | L 1.44 | N 2.68 | P 1.47 | Q 2.39 | S 1.83 | T 1.9 | W 2.08
R17: C 1.11 | D 3.03 | E 2.26 | F 1.52 | G 1.71 | H 2.35 | I 1.56 | K 1.76 | M 1.93 | N 2.21 | P 2.28 | Q 2.02 | S 1.5 | T 1.71 | V 2.15 | Y 1.22
S18: A 1.99 | D 1.71 | H 1.93 | M 1.38 | N 2.62 | P 1.6 | Q 1.52 | R 2.16 | T 2.31 | V 1.25 | Y 2.35
D19: A 1.67 | F 1.68 | I 2 | K 1.46 | L 1.47 | M 2.01 | P 2.16 | Q 1.85 | R 1.9 | S 1.33 | T 2.21
R20: A 2.17 | C 1.23 | E 2.73 | H 1.72 | K 1.43 | L 1.22 | M 1.72 | N 1.72 | P 1.45 | Q 3.07 | S 2.2 | T 1.25 | V 1.73 | W 3.61
D21: A 3.22 | C 2.4 | E 1.1 | F 3.21 | G 1.27 | H 2.02 | K 1.31 | M 2.08 | P 2.61 | R 1.19 | S 3.06 | V 2.94 | Y 1.22
K22: A 1.29 | C 3.83 | D 1.92 | H 1.34 | I 1.81 | L 1.71 | M 1.82 | P 1.66 | Q 1.68 | R 1.35 | S 2.72 | T 2.17 | W 2.09 | Y 2.27
R23: A 1.73 | C 1.67 | D 1.72 | E 1.86 | F 2.01 | G 2.85 | H 1.99 | I 1.69 | K 1.91 | L 1.35 | M 1.38 | N 1.81 | P 3.46 | Q 2.39 | S 1.29 | T 2.25 | V 1.88 | W 1.26 | Y 1.28
D24: A 1.68 | C 2.75 | E 1.93 | F 1.93 | H 2.1 | I 2.59 | K 1.37 | L 2 | M 1.66 | N 1.49 | P 2 | Q 1.37 | R 1.94 | S 2.23 | T 2.21 | V 1.31 | Y 1.58

Variants of: B2
Test: as above
Settings: c terminus: a fixed tail appended

Protein stability index, by site and new letter:
D1: A 1.94 | C 2.18 | E 1.77 | G 2.22 | H 2.05 | I 2.16 | K 2.09 | L 2.34 | M 2.26 | N 3.64 | P 2.08 | Q 2.05 | R 1.8 | S 2.05 | T 2.13 | V 2.7
P2: A 2.26 | C 2.28 | D 2.54 | E 2.04 | F 2.73 | G 2.05 | H 1.86 | I 1.88 | K 2.57 | L 2.15 | M 3.12 | N 2.12 | Q 1.92 | R 3.98 | S 2.7 | T 2.03 | V 2 | W 1.82 | Y 2.51
N3: A 2.21 | C 2.23 | E 2.52 | F 2.15 | G 2.8 | H 2.61 | I 2.19
